Experimental data reported in patent US20260250318A1, “COMPOSITIONS AND METHODS FOR CROSSING THE BLOOD BRAIN BARRIER” (VOYAGER THERAPEUTICS, INC., priority 2022, published 2026).
Where two headings read alike, the source gives them in different places.

B1: TTM-001: AAV9 capsid variant comprising SPHSKA (SEQ ID NO: 941) in loop IV (protein)
chain 1: MAADGYLPDWLEDNLSEGIREWWALKPGAPQPKANQQHQDNARGLVLPGYKYLGPGNGLDKGEPVNAADAAALEHDKAYDQQLKAGDNPYLKYNHADAEFQERLKEDTSFGGNLGRAVFQAKKRLLEPLGLVEEAAKTAPGKKRPVEQSPQEPDSSAGIGKSGAQPAKKRLNFGQTGDTESVPDPQPIGEPPAAPSGVGSLTMASGGGAPVADNNEGADGVGSSSGNWHCDSQWLGDRVITTSTRTWALPTYNNHLYKQISNSTSGGSSNDNAYFGYSTPWGYFDFNRFHCHFSPRDWQRLINNNWGFRPKRLNFKLFNIQVKEVTDNNGVKTIANNLTSTVQVFTDSDYQLPYVLGSAHEGCLPPFPADVFMIPQYGYLTLNDGSQAVGRSSFYCLEYFPSQMLRTGNNFQFSYEFENVPFHSSYAHSQSLDRLMNPLIDQYLYYLSKTINGSGSPHSKAQNQQTLKFSVAGPSNMAVQGRNYIPGPSYRQQRVSTTVTQNNNSEFAWPGASSWALNGRNSLMNPGPAMASHKEGEDRFFPLSGSLIFGKQGTGRDNVDADKVMITNEEEIKTTNPVATESYGQVATNHQSAQAQAQTGWVQNQGILPGMVWQDRDVYLQGPIWAKIPHTDGNFHPSPLMGGFGMKHPPPQILIKNTPVPADPPTAFNKDKLNSFITQYSTGQVSVEIEWELQKENSKRWNPEIQYTSNYYKSNNVEFAVNTEGVYSEPRPIGTRYLTRNL
chain 2: GSGSPHSKAQNQQT
B2: TTM-002: AAV9 capsid variant comprising HDSPHK (SEQ ID NO: 2) in loop IV (protein)
chain 1: MAADGYLPDWLEDNLSEGIREWWALKPGAPQPKANQQHQDNARGLVLPGYKYLGPGNGLDKGEPVNAADAAALEHDKAYDQQLKAGDNPYLKYNHADAEFQERLKEDTSFGGNLGRAVFQAKKRLLEPLGLVEEAAKTAPGKKRPVEQSPQEPDSSAGIGKSGAQPAKKRLNFGQTGDTESVPDPQPIGEPPAAPSGVGSLTMASGGGAPVADNNEGADGVGSSSGNWHCDSQWLGDRVITTSTRTWALPTYNNHLYKQISNSTSGGSSNDNAYFGYSTPWGYFDFNRFHCHFSPRDWQRLINNNWGFRPKRLNFKLFNIQVKEVTDNNGVKTIANNLTSTVQVFTDSDYQLPYVLGSAHEGCLPPFPADVFMIPQYGYLTLNDGSQAVGRSSFYCLEYFPSQMLRTGNNFQFSYEFENVPFHSSYAHSQSLDRLMNPLIDQYLYYLSKTINGHDSPHKSGQNQQTLKFSVAGPSNMAVQGRNYIPGPSYRQQRVSTTVTQNNNSEFAWPGASSWALNGRNSLMNPGPAMASHKEGEDRFFPLSGSLIFGKQGTGRDNVDADKVMITNEEEIKTTNPVATESYGQVATNHQSAQAQAQTGWVQNQGILPGMVWQDRDVYLQGPIWAKIPHTDGNFHPSPLMGGFGMKHPPPQILIKNTPVPADPPTAFNKDKLNSFITQYSTGQVSVEIEWELQKENSKRWNPEIQYTSNYYKSNNVEFAVNTEGVYSEPRPIGTRYLTRNL
chain 2: GHDSPHKSGQNQQT

Key:
ALPL = molecular target: T1, ALPL (Homo sapiens, UniProt P05186); assay type: cell-based; design: expressed in transfected cells; host or cells: HEK 293T; details: viral genomes, 2 or 3 hours post-incubation, relative to pCMV6
T1 sequence (P05186 18-501): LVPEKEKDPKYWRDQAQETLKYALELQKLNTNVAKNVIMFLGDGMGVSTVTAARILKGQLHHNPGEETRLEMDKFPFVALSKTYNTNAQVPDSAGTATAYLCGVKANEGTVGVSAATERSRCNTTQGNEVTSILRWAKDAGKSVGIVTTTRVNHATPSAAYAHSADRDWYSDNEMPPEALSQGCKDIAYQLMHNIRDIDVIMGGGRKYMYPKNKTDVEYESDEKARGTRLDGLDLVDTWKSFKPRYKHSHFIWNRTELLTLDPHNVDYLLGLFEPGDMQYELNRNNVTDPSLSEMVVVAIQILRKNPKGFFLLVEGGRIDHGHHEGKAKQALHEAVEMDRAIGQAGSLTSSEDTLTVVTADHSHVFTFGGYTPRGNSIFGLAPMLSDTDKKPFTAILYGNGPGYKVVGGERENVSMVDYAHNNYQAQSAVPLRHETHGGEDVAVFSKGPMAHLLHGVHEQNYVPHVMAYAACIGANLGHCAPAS
Experimental: Binding and internalization of AAV capsid variants comprising the TTM-001 capsid variant, the TTM-002 capsid variant, or the AAV9 control capsid was also investigated in cells engineered to express ALPL. HEK 293T cells were transfected via calcium phosphate transfection with a plasmid expressing ALPL, an AAVR positive control, or a pCMV6 negative control. At 24 hours post-transfection, the HEK 293T cells expressing the ALPL receptor were incubated with an AAV particle comprising the TTM-001 capsid variant, the TTM-002 capsid variant, or an AAV9 control capsid protein, expressing a GFP payload. At 2 or 3-hours post-incubation, cells were washed to remove unbound AAV particles and DNA was extracted to quantify viral genomes.

[1] = tested on: brain, spinal cord, liver and peripheral tissues; experiment: Individual capsid characterization in mice (qPCR transgene mRNA, viral DNA, IVIS, anti-GFP IHC); details: for DNA (viral genome quantification), Brain, relative to the AAV9 control / mRNA (transgene expression), Brain, relative to the AAV9 control / DNA (viral genome quantification), Liver, relative to the AAV9 control / mRNA (transgene expression), Liver, relative to the AAV9 control: BALB/c mice, tail vein 5e11 VG/dose; for anti-GFP immunohistochemistry staining in brain and spinal cord: compared to AAV9 control
Experimental: AAV particles were generated with each of these capsid variants encapsulating a luciferase-EGFP transgene driven by a CMV/chicken beta actin promoter in a single stranded viral genome. Each capsid variant and AAV9 control were tested by intravenously administering by tail vein injection, the AAV particle formulation at 5e11 VG/dose (2.5E13 vg/kg) to three female BALB/c mice. The in-life period was 28 days and then various CNS and peripheral tissues were collected for measuring transgene mRNA, transgene protein, and viral DNA (biodistribution).
At 28 days post-injection of the AAV particles encapsulated in the TTM-001 capsid variant (AAV_TTM-001), mice were injected with luciferin and their brains were harvested for IVIS imaging.
The brains isolated from mice injected with the AAV particles encapsulated in the TTM-001 capsid variant (AAV_TTM-001) or the TTM-002 capsid variant (AAV_TTM-002) were assayed by qPCR for the presence of transgene RNA as a measure of transgene expression, and the presence of viral DNA as a measure of viral genome levels. Data were provided as fold over AAV9 (Table 12).
The brain tissues and spinal cords of the mice were also subjected to anti-GFP immunohistochemistry staining to evaluate overall CNS tropism and biodistribution.
Peripheral tissues were also isolated from the mice intravenously injected with the AAV particles encapsulated in the TTM-001 capsid variant or the TTM-002 capsid variant for analysis by qPCR and/or GFP immunohistochemical staining. Transgene mRNA levels and viral genome DNA levels were quantified in the liver by qPCR and the fold over AAV9 was calculated for each capsid variant (Table 12).

AAVR = molecular target: T2, AAVR (Homo sapiens, UniProt Q8IZA0); assay type: cell-based; details: for Luciferase Activity (fold change relative to pCMV6 transfected cells) / Luciferase Activity (RLU): AAVR transfected cells; for Fold change in luciferase activity relative to the pCMV6 control cells: Table 35, Receptor AAVR; for Luciferase Activity (RLU): Table 30
T2 construct: expressed in transfected cells; host or cells: HEK 293T
T2 sequence (Q8IZA0 whole entry, looked up): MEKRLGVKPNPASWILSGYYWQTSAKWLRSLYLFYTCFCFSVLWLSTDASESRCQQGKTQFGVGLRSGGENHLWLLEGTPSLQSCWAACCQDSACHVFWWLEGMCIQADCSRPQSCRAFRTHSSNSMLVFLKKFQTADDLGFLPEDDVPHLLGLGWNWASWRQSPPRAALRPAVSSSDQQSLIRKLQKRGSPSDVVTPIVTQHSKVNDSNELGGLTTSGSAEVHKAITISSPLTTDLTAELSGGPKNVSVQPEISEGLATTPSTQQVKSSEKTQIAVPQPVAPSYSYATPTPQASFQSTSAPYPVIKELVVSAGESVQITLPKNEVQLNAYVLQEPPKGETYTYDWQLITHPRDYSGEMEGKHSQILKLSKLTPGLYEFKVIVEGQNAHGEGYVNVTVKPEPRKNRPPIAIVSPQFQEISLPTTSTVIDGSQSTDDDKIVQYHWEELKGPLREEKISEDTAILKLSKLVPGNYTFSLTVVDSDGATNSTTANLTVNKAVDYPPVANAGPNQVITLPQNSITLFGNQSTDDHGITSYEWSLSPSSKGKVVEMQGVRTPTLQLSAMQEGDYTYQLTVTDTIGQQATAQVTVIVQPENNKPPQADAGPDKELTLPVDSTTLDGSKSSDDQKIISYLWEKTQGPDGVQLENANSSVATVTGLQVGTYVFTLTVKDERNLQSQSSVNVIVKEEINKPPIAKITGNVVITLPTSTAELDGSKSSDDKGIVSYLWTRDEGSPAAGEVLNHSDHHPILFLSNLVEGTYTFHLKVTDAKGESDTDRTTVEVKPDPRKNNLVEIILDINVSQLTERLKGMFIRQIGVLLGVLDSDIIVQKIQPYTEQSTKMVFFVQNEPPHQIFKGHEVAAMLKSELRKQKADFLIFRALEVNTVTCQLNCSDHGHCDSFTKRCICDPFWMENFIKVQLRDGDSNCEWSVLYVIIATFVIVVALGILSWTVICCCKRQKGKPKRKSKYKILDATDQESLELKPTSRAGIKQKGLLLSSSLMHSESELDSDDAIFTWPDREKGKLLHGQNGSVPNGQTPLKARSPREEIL
Experimental: Briefly, a transduction assay was performed in that HEK 293T cells were transfected via calcium phosphate transfection with a plasmid expressing ALPL, an AAVR positive control, or a pCMV6 negative control (250 ng or 500 ng of plasmid). AAVR is a universal AAV entry factor involved in AAV transduction. […] At 24-hours post-transduction, GFP expression and luciferase activity were measured to quantify and observe AAV cellular transduction. […] The TTM-002, TTM-006, TTM-018, and TTM-019 capsid variants all comprised the SPH motif immediately subsequent to position 455, numbered relative to SEQ ID NO: 138 and a positive residue in one of the next three residues subsequent to the SPH motif.

| Molecule | fold increase in binding/internalization in cells expressing ALPL (ALPL) | DNA (viral genome quantification), Brain, relative to the AAV9 control ([1]; 28 days, qPCR) | mRNA (transgene expression), Brain, relative to the AAV9 control ([1]; 28 days, qPCR) | DNA (viral genome quantification), Liver, relative to the AAV9 control ([1]; 28 days, qPCR, liver) | mRNA (transgene expression), Liver, relative to the AAV9 control ([1]; 28 days, qPCR, liver) | Luciferase Activity (fold change relative to pCMV6 transfected cells) (AAVR; Table 27) | Luciferase Activity (fold change relative to pCMV6 transfected cells) (AAVR; Table 28) | Fold change in luciferase activity relative to the pCMV6 control cells (AAVR) | luciferase signal in brain (IVIS imaging) ([1]; 28 days post-injection, 5e11 VG/dose IV, vs AAV9) | anti-GFP immunohistochemistry staining in brain and spinal cord [1] | transgene mRNA levels in the brain, fold over AAV9 ([1]; qPCR, 28 days, 5e11 VG/dose IV) | viral genome (DNA) concentrations in the brain, fold over AAV9 ([1]; qPCR, 28 days, 5e11 VG/dose IV) | viral genome DNA levels in the liver compared to AAV9 ([1]; qPCR, liver) | Luciferase Activity (RLU) (AAVR) | transgene mRNA levels in the liver compared to AAV9 ([1]; qPCR, liver) | transduction in cells expressing the AAVR control (AAVR; compared with ALPL expression) |
| --- | --- | --- | --- | --- | --- | --- | --- | --- | --- | --- | --- | --- | --- | --- | --- | --- |
| AAV9: wild-type AAV9 control capsid [reference compound] | unaffected | 1.0 fold over AAV9 | 1.0 fold over AAV9 | 1.0 fold over AAV9 | 1.0 fold over AAV9 | 4.3 fold | 14 fold | 4.9 fold |  |  |  |  |  |  |  |  |
| B1 | 3 fold | 32.0315 fold over AAV9 | 30.4503 fold over AAV9 | 0.4802 fold over AAV9 | 1.2356 fold over AAV9 | 2.4 fold |  |  | Robust luciferase signal | significantly stronger staining and payload expression | 30 fold | 32 fold | only half as much | 13,981 RLU |  |  |
| B2 | 6 fold | 47.2810 fold over AAV9 | 66.2161 fold over AAV9 | 0.0277 fold over AAV9 | 0.2016 fold over AAV9 | 4.1 fold |  | 7.3 fold |  | significantly stronger staining and payload expression | 66 fold |  | greatly reduced | 11,261 RLU | greatly reduced | did not result in the same increase in transduction |
